Reference: article PMC10055720

Molecular target: human TERT∆TEN D788R, FLAG-tagged, co-expressed with TR (human)

POT1–TPP1-stimulated processivity in the trans complementation primer extension assay, relative to WT: 64%
total telomerase activity in the trans complementation primer extension assay, relative to WT TERT∆TEN with TEN: 24 % of WT
Substance: human TERT TEN domain (aa 2–197), Myc-tagged (from UniProt O14746 2-197) (domain or fragment)
